# Measurements reported in paper PMC10632514 (Nature Communications, 2023).
# B1: rmAb 460 IgG1 (antibody, V domains shown)
# VH: EVQLQQSGAELVKPGASVKLSCTASGFNIKDTYMHWVKQRPEQGLEWIGRIDPANGNTKYDPKFQGKATITADTSSNTAYLQLSSLTSEDTAVYFCTRSRGYFGNYYFDYWGQGTTLTVSS
# VL: QIVLTQSPAVMSASPGERVTMTCSASSSVSYMYWYQQKPRSSPKPWIYLTSNLASGVPARFSGSGSGTSYSLTISSMEAEDAATYYCQQWSSIPLTFGAGTKLELK
# B2: rmAb 235 IgG1 (antibody, V domains shown)
# VH: QVQLQQSGTDLVRPGTSVKVSCKASGYAFTTYFIEWVKQRPGQGLEWIGVINPGSGIPNYNEMFKGKATLTADKSSSTAYLHLSSLTSDDSAVYFCARAPYYYGSSYYYFDVWGAGTTVTVSS
# VL: DIVMSQSPSSLAVSVGEKVTMSCKSSQSLLYSSNQKNYLAWYQQKPGQSPKLLIYWASTRDSGVPDRFTGSGSGTDFTLTISSVKAEDLAVYCCQQYYNYPFTFGAGTKLEIK
# Molecular target: T1, MPER peptide (wild type, for epitope mapping) (HIV-1 HXB2)
# T1 construct: also called wild-type MPER (WT); source: synthetic peptide
# T1 chain: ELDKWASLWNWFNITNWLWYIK
# Test: SPR
# Details: both partners purified
binder,measurement,value
B1,binding result,binds
B2,binding result,binds
